Test results taken from patent US20120077957A1 (PALATIN TECHNOLOGIES, published 2012).
Like-named read-outs stand apart in the source and are kept apart here. Numbered stars: 1 amine (or outer) side, 2 acyl side, 3 side chain; on linkers, the order of the positions; unused ones are H or OH. Bridge positions count the residues as written; N and C are the ends. Square brackets hold non-standard residues; d marks the D form. * marks the point of attachment. Ser(Bzl) = O-benzyl-serine, O=C([C@H](COCc1ccccc1)N[*:1])[*:2]; Nle = CCCC[C@H](N)C(=O)O; Orn = NCCC[C@H](N)C(=O)O; Dab = NCC[C@H](N)C(=O)O; Bn = c1ccc(C*)cc1

Assays:
[1] = target: T1, human melanocortin-4 receptor (recombinant hMC4-R) (human, UniProt P32245 1-332); assay: competition with labelled NDP-α-MSH ([I125] or Eu), hMC4-R HEK-293 membranes
T1 construct: whole, on cells; Ki assays used membrane homogenates of HEK-293 cells expressing recombinant hMC4-R; cAMP assays used HEK-293 T-REx cells induced with 0.1 ng/mL doxycycline; also called human MC4-R; MC4 receptor
Experimental: (§1) After incubation for 60 minutes at 37° C., the assay mixture was filtered and the membranes washed three times with ice-cold buffer. Filters were dried and counted in a gamma counter for bound radioactivity. […] Maximal specific binding (100%) was defined as the difference in radioactivity (cpm) bound to cell membranes in the absence and presence of 1 μM NDP-α-MSH. […] Ki values for test peptides of the present invention were determined using Graph-Pad Prism® curve-fitting software.
(§2) After incubation for 90 minutes at 37° C., the reaction was stopped by filtration over AcroWell 96-well filter plates (Pall Life Sciences). The filter plates were washed 4 times with 200 μL of ice-cold phosphate-buffered saline. DELFIA Enhancement solution (PerkinElmer Life Sciences) was added to each well. The plates were incubated on a shaker for 15 minutes and read at 340 nm excitation and 615 nm emission wavelengths. Each assay was conducted in duplicate and mean values were utilized. Ki values were determined by curve-fitting with Graph-Pad Prism® software using a one-site fixed-slope competition binding model.

[2] = target: T1, human melanocortin-4 receptor …; assay: cell-based or functional assay
[3] = target: T1, human melanocortin-4 receptor …; assay: cell-based or functional assay; remark: listed apart in the source
[4] = target: T1, human melanocortin-4 receptor …; assay: competition with labelled NDP-α-MSH ([I125] or Eu), hMC4-R HEK-293 membranes; remark: listed apart in the source
Experimental: as §1, §2

T1 sequence (P32245 whole entry): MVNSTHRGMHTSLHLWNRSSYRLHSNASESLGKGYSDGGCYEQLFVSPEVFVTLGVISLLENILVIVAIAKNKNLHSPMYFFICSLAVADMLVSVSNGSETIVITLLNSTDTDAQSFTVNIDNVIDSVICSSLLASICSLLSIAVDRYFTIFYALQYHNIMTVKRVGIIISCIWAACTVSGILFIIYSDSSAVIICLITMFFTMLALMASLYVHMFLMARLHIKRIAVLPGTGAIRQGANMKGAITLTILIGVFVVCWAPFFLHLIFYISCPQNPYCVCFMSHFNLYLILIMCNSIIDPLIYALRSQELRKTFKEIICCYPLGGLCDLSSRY

B1: Peptide No. 21: Ac-cyclo(Glu-Gln-D-Phe-Arg-Trp-Orn)-NH2 (peptide)
peptide: Ac-EQ[dF]RW[Orn]-NH2
modifications: lactam 1-6
SMILES: CC(=O)N[C@H]1CCC(=O)NCCC[C@@H](C(N)=O)NC(=O)[C@H](Cc2c[nH]c3ccccc23)NC(=O)[C@H](CCCNC(=N)N)NC(=O)[C@@H](Cc2ccccc2)NC(=O)[C@H](CCC(N)=O)NC1=O
[1]
  Ki: 74 nM
[2]
  Ec50 (nM), cAMP: 26 nM
  Emax (%), cAMP: 49%

## Ac-R[Orn]H[dF]RWE-OH (lactam 2-7) [Peptide No. 37: Ac-Arg-cyclo(Orn-His-D-Phe-Arg-Trp-Glu)-OH]
[3]
  Ec50 (nM), cAMP: 0.6 nM
  Emax (%), cAMP: 88%
[4]
  Ki: 12 nM

## Ac-K[Orn]H[dF]RWE-NH2 (lactam 2-7) [Peptide No. 40: Ac-Lys-cyclo(Orn-His-D-Phe-Arg-Trp-Glu)-NH2]
[3]
  Ec50 (nM), cAMP: 0.2 nM
  Emax (%), cAMP: 114%
[4]
  Ki: 3 nM

## Ac-R[Orn]S(Bn)[dF]RWE-OH (lactam 2-7) [Peptide No. 48: Ac-Arg-cyclo(Orn-Ser(Bzl)-D-Phe-Arg-Trp-Glu)-OH]
[3]
  Ec50 (nM), cAMP: 3 nM
  Emax (%), cAMP: 50%
[4]
  Ki: 5 nM

## Ac-R[Orn]P[dF]RWE-NH2 (lactam 2-7) [Peptide No. 47: Ac-Arg-cyclo(Orn-Pro-D-Phe-Arg-Trp-Glu)-NH2]
[3]
  Ec50 (nM), cAMP: 6 nM
  Emax (%), cAMP: 54%
[4]
  Ki: 5 nM

B2: Peptide No. 41: Ac-Arg-cyclo(Orn-Ala-D-Phe-Arg-Trp-Glu)-NH2 (peptide)
peptide: Ac-R[Orn]A[dF]RWE-NH2
modifications: lactam 2-7
SMILES: CC(=O)N[C@@H](CCCNC(=N)N)C(=O)N[C@H]1CCCNC(=O)CC[C@@H](C(N)=O)NC(=O)[C@H](Cc2c[nH]c3ccccc23)NC(=O)[C@H](CCCNC(=N)N)NC(=O)[C@@H](Cc2ccccc2)NC(=O)[C@H](C)NC1=O
[3]
  Ec50 (nM), cAMP: 7 nM
  Emax (%), cAMP: 52%
[4]
  Ki: 19 nM

B3: Asp...Lys analog of peptide No. 40: Ac-Lys-cyclo(Asp-His-D-Phe-Arg-Trp-Lys)-NH2 (peptide)
peptide: Ac-KDH[dF]RWK-NH2
modifications: lactam 2-7
SMILES: CC(=O)N[C@@H](CCCCN)C(=O)N[C@H]1CC(=O)NCCCC[C@@H](C(N)=O)NC(=O)[C@H](Cc2c[nH]c3ccccc23)NC(=O)[C@H](CCCNC(=N)N)NC(=O)[C@@H](Cc2ccccc2)NC(=O)[C@H](Cc2c[nH]cn2)NC1=O
notes: also called Peptide Structure (Asp...Lys) in the row of No. 40
[3]
  Ec50 (nM), cAMP: 5 nM
  Emax (%), cAMP: 85%
[4]
  Ki: 9 nM

B4: Asp...Lys analog of peptide No. 47: Ac-Arg-cyclo(Asp-Pro-D-Phe-Arg-Trp-Lys)-NH2 (peptide)
peptide: Ac-RDP[dF]RWK-NH2
modifications: lactam 2-7
notes: also called Peptide Structure (Asp...Lys) in the row of No. 47
[3]
  Ec50 (nM), cAMP: 9 nM
  Emax (%), cAMP: 43%
[4]
  Ki: 17 nM

B5: Asp...Lys analog of peptide No. 41: Ac-Arg-cyclo(Asp-Ala-D-Phe-Arg-Trp-Lys)-NH2 (peptide)
peptide: Ac-RDA[dF]RWK-NH2
modifications: lactam 2-7
notes: also called Peptide Structure (Asp...Lys) in the row of No. 41
[3]
  Ec50 (nM), cAMP: 37 nM
  Emax (%), cAMP: 74%
[4]
  Ki: 19 nM

B6: Asp...Lys analog of peptides No. 34 and No. 46: Ac-Arg-cyclo(Asp-Asn-D-Phe-Arg-Trp-Lys)-NH2 (peptide)
peptide: Ac-RDN[dF]RWK-NH2
modifications: lactam 2-7
SMILES: CC(=O)N[C@@H](CCCNC(=N)N)C(=O)N[C@H]1CC(=O)NCCCC[C@@H](C(N)=O)NC(=O)[C@H](Cc2c[nH]c3ccccc23)NC(=O)[C@H](CCCNC(=N)N)NC(=O)[C@@H](Cc2ccccc2)NC(=O)[C@H](CC(N)=O)NC1=O
notes: also called Peptide Structure (Asp...Lys) in the rows of No. 34 and No. 46
[1]
  Ki: 32 nM
[3]
  Ec50 (nM), cAMP: 42 nM
  Emax (%), cAMP: 91%
[2]
  Ec50 (nM), cAMP: 42 nM
  Emax (%), cAMP: 91%
[4]
  Ki: 32 nM

B7: Asp...Lys analog of peptides No. 17 and No. 48: Ac-Arg-cyclo(Asp-Ser(Bzl)-D-Phe-Arg-Trp-Lys)-OH (peptide)
peptide: Ac-RD[Ser(Bzl)][dF]RWK-OH
modifications: lactam 2-7
notes: also called Peptide Structure (Asp...Lys) in the rows of No. 17 and No. 48
[1]
  Ki: 9 nM
[3]
  Ec50 (nM), cAMP: 5 nM
  Emax (%), cAMP: 38%
[2]
  Ec50 (nM), cAMP: 5 nM
  Emax (%), cAMP: 38%
[4]
  Ki: 9 nM

B8: Asp...Lys analog of peptide No. 45: Ac-D-Arg-cyclo(Asp-Gln-D-Phe-Arg-Trp-Lys)-NH2 (peptide)
peptide: Ac-[dR]DQ[dF]RWK-NH2
modifications: lactam 2-7
notes: also called Peptide Structure (Asp...Lys) in the row of No. 45
[3]
  Emax (%), cAMP: 89%
[4]
  Ki: 45 nM

## Ac-[dR][Orn]H[dF]RWE-NH2 (lactam 2-7) [Peptide No. 39: Ac-D-Arg-cyclo(Orn-His-D-Phe-Arg-Trp-Glu)-NH2]
[3]
  Ec50 (nM), cAMP: 0.2 nM
  Emax (%), cAMP: 103%
[4]
  Ki: 4 nM

## Ac-[Nle][Orn]H[dF]RWE-NH2 (lactam 2-7) [Peptide No. 36: Ac-Nle-cyclo(Orn-His-D-Phe-Arg-Trp-Glu)-NH2]
[3]
  Ec50 (nM), cAMP: 0.2 nM
  Emax (%), cAMP: 85%
[4]
  Ki: 0.2 nM

## Ac-[Nle][Orn]H[dF]RWE-OH (lactam 2-7) [Peptide No. 35: Ac-Nle-cyclo(Orn-His-D-Phe-Arg-Trp-Glu)-OH]
[3]
  Emax (%), cAMP: 97%
[4]
  Ki: 1 nM

## Ac-R[Orn][Dab][dF]RWE-NH2 (lactam 2-7) [Peptide No. 43: Ac-Arg-cyclo(Orn-Dab-D-Phe-Arg-Trp-Glu)-NH2]
[3]
  Ec50 (nM), cAMP: 0.1 nM
  Emax (%), cAMP: 103%
[4]
  Ki: 3 nM

## Ac-R[Orn]H[dF]RWE-NH2 (lactam 2-7) [Peptide No. 38: Ac-Arg-cyclo(Orn-His-D-Phe-Arg-Trp-Glu)-NH2]
[3]
  Ec50 (nM), cAMP: 1 nM
  Emax (%), cAMP: 84%
[4]
  Ki: 1 nM

## Ac-RE[Orn](Ac)[dF]RW[Orn]-NH2 (lactam 2-7) [Peptide No. 33: Ac-Arg-cyclo(Glu-Orn(Acetyl)-D-Phe-Arg-Trp-Orn)-NH2]
[1]
  Ki: 7 nM
[2]
  Ec50 (nM), cAMP: 3 nM
  Emax (%), cAMP: 90%
